Reference: article PMC466950 (Science Advances, 2024)

Key:
[1] = biological target: human E2 subunit within hCore (human) (UniProt P10515); assay: gel densitometry of the purified complex
[2] = biological target: porcine E2 of native PDHc (Sus scrofa domesticus (endogenous in porcine liver)); assay: gel densitometry of the purified complex
cryo-EM structure = biological target: the molecule itself; assay: cryo-EM structure

Molecule: human E3BP subunit within hCore (from UniProt O00330 54-501) (natural protein)
- E3BP chains per 60-subunit core (E3BP molecules per 60-subunit assembly) [1]: 13

Molecule: porcine E3BP of native PDHc (natural protein)
- E3BP chains per 60-subunit core (E3BP molecules per 60-subunit assembly) [2]: 13

B1: human E2 homo-60-mer (enzyme)
chain: SLPPHQKVPLPSLSPTMQAGTIARWEKKEGDKINEGDLIAEVETDKATVGFESLEECYMAKILVAEGTRDVPIGAIICITVGKPEDIEAFKNYTLDSSAAPTPQAAPAPTPAATASPPTPSAQAPGSSYPPHMQVLLPALSPTMTMGTVQRWEKKVGEKLSEGDLLAEIETDKATIGFEVQEEGYLAKILVPEGTRDVPLGTPLCIIVEKEADISAFADYRPTEVTDLKPQVPPPTPPPVAAVPPTPQPLAPTPSAPCPATPAGPKGRVFVSPLAKKLAVEKGIDLTQVKGTGPDGRITKKDIDSFVPSKVAPAPAAVVPPTGPGMAPVPTGVFTDIPISNIRRVIAQRLMQSKQTIPHYYLSIDVNMGEVLLVRKELNKILEGRSKISVNDFIIKASALACLKVPEANSSWMDTVIRQNHVVDVSVAVSTPAGLITPIVFNAHIKGVETIANDVVSLATKAREGKLQPHEFQGGTFTISNLGMFGIKNFSAIINPPQACILAIGASEDKLVPADNEKGFDVASMMSVTLSCDHRVVDGAVGAQWLAEFRKYLEKPITMLL
- stoichiometry N (cryo-EM structure): 60 subunits

B2: human E2 subunit within hCore (enzyme)
chain: SLPPHQKVPLPSLSPTMQAGTIARWEKKEGDKINEGDLIAEVETDKATVGFESLEECYMAKILVAEGTRDVPIGAIICITVGKPEDIEAFKNYTLDSSAAPTPQAAPAPTPAATASPPTPSAQAPGSSYPPHMQVLLPALSPTMTMGTVQRWEKKVGEKLSEGDLLAEIETDKATIGFEVQEEGYLAKILVPEGTRDVPLGTPLCIIVEKEADISAFADYRPTEVTDLKPQVPPPTPPPVAAVPPTPQPLAPTPSAPCPATPAGPKGRVFVSPLAKKLAVEKGIDLTQVKGTGPDGRITKKDIDSFVPSKVAPAPAAVVPPTGPGMAPVPTGVFTDIPISNIRRVIAQRLMQSKQTIPHYYLSIDVNMGEVLLVRKELNKILEGRSKISVNDFIIKASALACLKVPEANSSWMDTVIRQNHVVDVSVAVSTPAGLITPIVFNAHIKGVETIANDVVSLATKAREGKLQPHEFQGGTFTISNLGMFGIKNFSAIINPPQACILAIGASEDKLVPADNEKGFDVASMMSVTLSCDHRVVDGAVGAQWLAEFRKYLEKPITMLL
modifications: one lipoamide in each of the two lipoyl domains (fully lipoylated by ESI-MS); N-terminal methionine present
- binding result (cryo-EM structure): binds
